From the RNAGym collection of RNA variant scans (doi:10.1073/pnas.2313332121)
Variants at the floor of the assay were thinned out.

B1: TPR 5TU (parent)
chain: GGAUCUUCUCGAUCUAACAAAAAAGACAAAUCUGCCACAAAGCUUGAGAGCAUCUUCGGAUGCAGAGGCGGCAGCCUUCGGUGGCGCGAUAGCGCCAACGUUCUCAACUAUGACACGCAAAACGCGUGCUCCGUUGAAUGGAGUUUAUCAUG

Variants of: B1
Test: polymerase ribozyme fitness, log enrichment relative to wild type (log ratio); higher = more active; in vitro selection for triplet polymerase activity
Outline: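 Only genotypes with ≥10 input reads and ≥1 read per output were kept after Illumina sequencing of input and output libraries. These libraries were PCR-built, transcribed mutants of each subunit of a heterodimeric triplet polymerase ribozyme, each put through one triplicate in vitro selection round with frozen incubation at −7 °C, gel excision of extended constructs, streptavidin-bead capture and RT-PCR. Fitness is a logarithmic ratio of genotype enrichment to wild-type enrichment, from inverse-variance-weighted replicate averages, with the logarithm in base 2.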

Compared with GGAUCUUCUCGAUCAAACAAAAAAGACAAAUCUGCCACAAAGCUUGAGAGCAUCUUCGGAUGCAGAGGCGGCAGCCUUCGGUGGAGCGAUAGCGCCAACGUUCUCAACUAUGACACGCAAAACGCGUGCUCCGUUGAAUGGAGUUUAUCAUG [U15A C85A], GGAUCUUCUCGAUCAAACAAAAAAGACAAAUCUGCCACGAAGCUUGAGAGCAACUUCGGAUGCAGAGGCGGCUGCCUUCGGUGGUGCGAUAGCGCCAACGUUCUCAACUAUGACACGCAAAACUCGUGCUCCGCCGAAUGGAGUUUAUCAUG [U15A A39G U53A A73U C85U G124U U134C U135C] is lower in “polymerase ribozyme fitness (log ratio)” value: -1.53 for the first, ≤ -4.2 for the second.

GGAUCUUCUCGAUCAAACAAAAAACACACAUCUGCCACAAAGCUUGACAGCAUCUUCGGAUGCUGAGGCGGCAGCCUUCGGUGGCGCGAUAGUGACAACGUUCUCAACUAUGACACGCAAAACGCGUGCUCCGUUGAAUGGAGUUUAUAAUG [U15A G25C A29C G48C A64U C93U C95A C149A] and GGAUCUUCUCGAUCAAACAAAAAAGACAAAUCUGCCACAAAGCUUGAGUGCAUCUUCGGAUGCAGAGGCGGCGGCCUUCGGGGGCGCGAUAGCGCCAACGUUCUCAUCUAUGACACGCAAAACGCGUGCUCCGUUGAAUGGAGUUUAUCAUG [U15A A49U A73G U82G A107U] cannot be ordered by “polymerase ribozyme fitness (log ratio)” value: ≤ -4.2 for the first, ≤ -4.2 for the second.

Compared with GGAUCUUCUCGAUCAAACAAAAAAGACAAAUCUGCCACUAAGCUUGAGAGCAUCUUCGGAUGCAGAGGCGGCAGCCUUCGGUGGCGCGAUAGCGCUAACGUUCUCAACUAUGAAACGCAAAGUGAGUGCUCCGUUGAAUGGAGUUUAUCAUG [U15A A39U C96U C114A A122G C123U C125A], GGAUCUUCUCGAUCAAACAAAAAAGACAGAUCUGCCACAAAGCUUGAGAGCAUCUUCGGAUGCAGAGGCGGCAGCCUACGGUGGCGCAAUAGCGCCAACGUUCUCAACUAUGACACGCAAAACGCUUGCUCCGUGGAAUGGAGUUUAGCAUG [U15A A29G U78A G88A G126U U135G U148G] is lower in “polymerase ribozyme fitness (log ratio)” value: -4.11 for the first, ≤ -4.2 for the second.

First: GGAUCUUCUCGAUCAAACAAAAAAGACAAAUCUGCCACAAAGCUUGGGAGCAUCUAUGGAUGCAGAGGCGGCAGCCUUCGGUGGCGCGAUAGCGCCAACGUUCUCAACUAUGACACGCAAAACCCGUGCUCCGUUGAAUGGAGUUUAUUAUG [U15A A47G U56A C57U G124C C149U]
Second: GGAUCUUCUCGAUCAAACAAAAAAGACAAAUCUGCCACAAAGCUUGAGAGCAUCUUCGGAUGCAGAGGCGGCCGCCUUCGGUGGCGCGAUAGCACCAACGUUCUCAACUAUGACACGCAAAACGCGUGCUCCGUUGAAUGGAGUUUAUCAUG [U15A A73C G94A]
The “polymerase ribozyme fitness (log ratio)” value of the first is higher: -2.48 for the first, -3.39 for the second.

Compared with GGAUCUUCUCGAUCAAACAAAAAAGACAAAUCUGCCACAAAGCUUGAGAGCAUCUUCGGAUGCAGAGGCGGCAGCCUUCGGUGGCGCGAUAGCGCCAACGUUCUCAACUAUGACACGCAAAACGCGUGCUCCGUUGAAUGGCGUUUAUCAUG [U15A A142C], GGAUCUUCUCGAUCAAACAAAAAAGACAAAUCUGCUACAAAGCUUGAGAGCAUCUUCGGAUGCAGAGGCGGCAGCCUUCGGUGGCGUGAUAGCGCCAACGUUCUCAACUAUGACACGCAAAACUCGUGCUCCGUUGCAUGGAGUUUAUCAUG [U15A C36U C87U G124U A137C] is lower in “polymerase ribozyme fitness (log ratio)” value: -0.894 for the first, -4.03 for the second.

Compared with GGAUCUUCUCGAUCAAACAAAAAAGACAAAUCUGCCACAAAGCUUGAGAGUAUCUUCGGAUGCAGAGGCGGCAGCCUUCGGUGGCUCGAUAGCGCCAACGUUCUCAACUAUGACACGCAAAACGCGUGCUCCGUUGAAUGGAGUUUAUCAUG [U15A C51U G86U], GGAUCUUCUCGAUCAAACAAAAAAGACAAAUCUGCCACAAAGCUUGAGAGCAUCUUCGGGUGCAGAGGCGGCAGCCUUCUGUGGCGCGAUAGCGCUAACGUUCUCAACUAUGACACGCAAACCGCGUGCUCCGUUGAAUGGAGUUUAUCAUG [U15A A60G G80U C96U A122C] is higher in “polymerase ribozyme fitness (log ratio)” value: -1.69 for the first, -1.4 for the second.

Compared with GGAUCUUCUCGAUCAAACAAAAAAGACAAAUCUGCCACAAAGCUUGAGAGCAUUUUCGGAUGCAGAGGCGGCAGCCUUCGGUGGCGCGAUAACGCCAACGUUCUCAACUAUGACACGCAAAACGCGUGCUCCGUUGAAUGGAGUUUAUCAUG [U15A C54U G92A], GGAUCUUCUCGAUCAAACAAAAAAGAGAAAUCUGCCACAAAGCUUGAGAGCAUCAUGGGAUGCAGAGGCGGCAGCCUUCGGUGGCGCGAUAGCUCCAACGUUCUUAACUAUGACACGCAAAACGCGUGCUCCGUUAAAUGGAUUUUAUCAUG [U15A C27G U55A C57G G94U C105U G136A G143U] is lower in “polymerase ribozyme fitness (log ratio)” value: -3 for the first, ≤ -4.2 for the second.

Going from GGAUCUUCUCGAUCAAACAAAAAAGACAAAUCUGCCACAAAGCUUGACAGCAUCUUCGGAUGCAGAGGCGGCAGCCUUCGGUUGCGCGAUAGCGCCAACGUUCUCAACUAUGACACGCAAAACGCGUGCUCCGUUGAAUGGAGUUUAUCAUG [U15A G48C G83U] to GGAUCUUCUCGAUCAAACAAAAAAGACAAAUCUGCCACAAAGCUUGAGAGCCUCUUCGGAUGCAGCGGCGGCAGCCUUCGGUGUCGCGAUAGCGCCAACGUUCUCAACUAUGACACGCAAAACGCGUGCUCCGUUGAAUGGAGUUUAUCAUG [U15A A52C A66C G84U], the “polymerase ribozyme fitness (log ratio)” value falls from -2.41 to ≤ -4.2.

Going from GGAUCUUCUCGAUCAAACACAAAAGACAAAUCUGCCACAAAGCUUGAGAGCAUCUUCGAUUGCAGAGGCGGCAGCCUUCGGUGGCGCGAUAGGGCCAACGUUCUUAACUAUGACACGCAAAACGCGUGCUCCUUUGAAUGGAGUUUAUCAUG [U15A A20C G59A A60U C93G C105U G133U] to GGAUCUUCUCGAUCAAACCAAAAAGACAAAUCUGCCACAAAGCUUGAGAGCGUCUUCGGAUGCAGAGGCGGCAGCCUUCGGUAGCGCGAUAGCGCCAACGUUGUCAACUAUGACACGCAAAACGCGUGCUCCGUUGAAUGGAGUUUAUCAUG [U15A A19C A52G G83A C103G], the “polymerase ribozyme fitness (log ratio)” value rises from ≤ -4.2 to -3.83.

With GGAUCUUCUCGAUCAAACUAAAAAGACAAAUCUGCCACAAAGCUUGAGAGCAUCUUGGGAUGCAGAGGCGGCAGCCUUCGGUGGCACGAUAGCGCCAACGUUCUCAACUAUGACACGCAAAACGCGUGCUCCGUUGAAUGGAGUUUAUCAUG [U15A A19U C57G G86A] the “polymerase ribozyme fitness (log ratio)” value was -1.7.
